Measured values published in patent US20160090402A1 (BIOMERIEUX, published 2016).

T1: hASCT2 receptor (human type 2 sodium-dependent neutral amino acid transporter) (human, UniProt Q15758 1-541)
T1 construct: whole, on cells
T1 sequence: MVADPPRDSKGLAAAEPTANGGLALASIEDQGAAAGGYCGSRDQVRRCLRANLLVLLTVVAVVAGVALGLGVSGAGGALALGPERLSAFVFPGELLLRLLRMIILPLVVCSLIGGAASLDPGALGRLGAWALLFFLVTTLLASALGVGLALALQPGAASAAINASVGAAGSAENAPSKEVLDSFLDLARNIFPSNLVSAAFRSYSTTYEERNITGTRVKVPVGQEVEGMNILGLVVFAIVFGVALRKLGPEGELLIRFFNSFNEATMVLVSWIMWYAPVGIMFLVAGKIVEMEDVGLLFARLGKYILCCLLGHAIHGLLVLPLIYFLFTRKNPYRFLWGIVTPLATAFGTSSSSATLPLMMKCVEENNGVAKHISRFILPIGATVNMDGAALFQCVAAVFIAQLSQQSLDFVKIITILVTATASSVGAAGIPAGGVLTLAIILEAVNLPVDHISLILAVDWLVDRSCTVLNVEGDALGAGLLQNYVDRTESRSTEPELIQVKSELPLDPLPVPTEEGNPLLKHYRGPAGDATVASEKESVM

T2: hASCT1 receptor (human, UniProt P43007 1-532)
T2 construct: whole, on cells
T2 sequence: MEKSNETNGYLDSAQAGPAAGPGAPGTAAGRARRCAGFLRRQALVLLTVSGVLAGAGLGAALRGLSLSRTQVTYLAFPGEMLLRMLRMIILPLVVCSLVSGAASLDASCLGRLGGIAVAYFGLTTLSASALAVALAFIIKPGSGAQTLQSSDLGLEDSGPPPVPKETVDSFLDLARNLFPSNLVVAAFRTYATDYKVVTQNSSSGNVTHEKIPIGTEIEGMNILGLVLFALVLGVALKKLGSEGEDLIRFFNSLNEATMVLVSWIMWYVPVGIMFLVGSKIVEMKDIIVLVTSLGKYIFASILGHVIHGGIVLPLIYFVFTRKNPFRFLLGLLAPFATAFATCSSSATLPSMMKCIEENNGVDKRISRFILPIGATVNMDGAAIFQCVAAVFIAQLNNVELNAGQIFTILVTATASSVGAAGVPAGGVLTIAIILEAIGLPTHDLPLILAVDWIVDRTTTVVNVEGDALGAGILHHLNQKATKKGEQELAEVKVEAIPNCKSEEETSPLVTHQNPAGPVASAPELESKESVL

B1: soluble recombinant envelope protein Env-Gp60 (Gp60, 1-435) (ligand)
chain: not shown
notes: range 21-435; Used as filtered HEK293T supernatant; the construct is printed as 1-435; also called soluble envelope
B2: soluble recombinant SU subunit of the HERV-W envelope (EnvSU, 1-317) (ligand)
chain: APPPCRCMTSSSPYQEFLWRMQRPGNIDAPSYRSLSKGTPTFTAHTHMPRNCYHSATLCMHANTHYWTGKMINPSCPGGLGVTVCWTYFTQTGMSDGGGVQDQAREKHVKEVISQLTRVHGTSSPYKGLDLSKLHETLRTHTRLVSLFNTTLTGLHEVSAQNPTNCWICLPLNFRPYVSIPVPEQWNNFSTEINTTSVLVGPLVSNLEITHTSNLTCVKFSNTTYTTNSQCIRWVTPPTQIVCLPSGIFFVCGTSAYRCLNGSSESMCFLSFLVPPMTIYTEQDLYSYVISKPAAARRGSHHHHHH
notes: range 21-317; Used as filtered HEK293T supernatant; also called soluble SU; SU subunit (1-317)

Experiments:
[1] = biological target: T1, hASCT2 receptor (human type 2 …); assay: flow cytometry on XChASCT2 cells, anti-RGS-His detection
hASCT1 receptor = biological target: T2, hASCT1 receptor; assay: flow cytometry on XChASCT1 cells, anti-RGS-His detection
[2] = biological target: T1, hASCT2 receptor (human type 2 …); assay: flow cytometry on XChASCT2 cells and on TE671 and TE671galv cells, anti-RGS-His detection

| Binder | binding result [1] | binding result (hASCT1 receptor) | binding result [2] |
| --- | --- | --- | --- |
| B1 | binds |  |  |
| B2 |  | binds | binds |
